Reference: publication PMC5993538, “The plant-specific transcription factors CBP60g and SARD1 are targeted by a Verticillium secretory protein VdSCP41 to modulate immunity”

Target: T1, GST-CBP60g (Arabidopsis thaliana, UniProt F4K2R6 1-563)
T1 sequence: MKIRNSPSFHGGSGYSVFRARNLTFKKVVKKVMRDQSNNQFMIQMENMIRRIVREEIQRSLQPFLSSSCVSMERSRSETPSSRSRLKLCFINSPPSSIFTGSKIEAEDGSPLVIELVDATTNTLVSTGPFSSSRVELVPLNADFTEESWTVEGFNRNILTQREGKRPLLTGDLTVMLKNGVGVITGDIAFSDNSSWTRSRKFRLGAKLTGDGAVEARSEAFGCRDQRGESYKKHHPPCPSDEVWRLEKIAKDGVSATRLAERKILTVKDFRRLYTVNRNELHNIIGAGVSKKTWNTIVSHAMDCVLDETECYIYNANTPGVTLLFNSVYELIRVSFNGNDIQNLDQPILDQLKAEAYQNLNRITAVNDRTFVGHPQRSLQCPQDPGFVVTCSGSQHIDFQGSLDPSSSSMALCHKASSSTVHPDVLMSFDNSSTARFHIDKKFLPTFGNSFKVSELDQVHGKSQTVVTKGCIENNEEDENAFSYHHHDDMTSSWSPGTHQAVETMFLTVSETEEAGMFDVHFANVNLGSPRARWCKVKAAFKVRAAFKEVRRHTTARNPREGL
Test: EMSA; no effector; signal reduced by 150x unlabeled probe; 10 mM Tris-HCl pH 7.5, 50 mM KCl, 1 mM DTT, 50 ng poly[dI-dC], 20 ul, room temperature 30 min; 2 fmol probe, 4 ug GST-CBP60g; 5% native PAGE
Conditions: protein: recombinant; tags: N-terminal GST (pGEX-6p-1); label: 32P (5' end, T4 PNK); blunt

B1: ICS1 promoter 60-bp probe (dsDNA)
DNA 1: TGTGTAATTTGGTGGTTATTTCATAGAAATTTTGGGGAAATTGTTGCACCTCTCCACTCT
DNA 2: AGAGTGGAGAGGTGCAACAATTTCCCCAAAATTTCTATGAAATAACCACCAAATTACACA
B1: binds.
